Results taken from article PMC1762375.

Experiments:
Experiment in all cases: two-hybrid; yeast strains L40 or PJ69-4A; β-galactosidase quantitative liquid assays, fold activation with respect to the empty vector, at least four independent protein extracts
[1] = target: DSH-FLN, LexA bait fusion (Drosophila) (UniProt P51140)
[2] = target: Cno NH, LexA bait fusion (Drosophila)
[3] = target: Cno-MP, LexA bait fusion (Drosophila) (UniProt Q24279)
Chain of UniProt Q24279 (Q24279 entry or part of it): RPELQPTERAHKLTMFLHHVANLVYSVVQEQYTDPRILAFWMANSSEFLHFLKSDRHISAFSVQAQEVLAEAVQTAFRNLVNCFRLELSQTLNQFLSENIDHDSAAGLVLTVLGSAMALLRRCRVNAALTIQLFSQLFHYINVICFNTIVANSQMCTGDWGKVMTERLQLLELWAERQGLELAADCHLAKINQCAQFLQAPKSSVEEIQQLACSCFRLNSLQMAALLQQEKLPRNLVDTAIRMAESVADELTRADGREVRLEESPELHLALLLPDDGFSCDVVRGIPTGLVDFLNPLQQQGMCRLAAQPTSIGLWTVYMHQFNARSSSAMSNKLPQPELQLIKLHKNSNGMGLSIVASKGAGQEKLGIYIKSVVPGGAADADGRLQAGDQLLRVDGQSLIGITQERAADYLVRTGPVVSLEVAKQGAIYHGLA

Chain of UniProt P51140 (P51140 whole entry, the tested form may be a part): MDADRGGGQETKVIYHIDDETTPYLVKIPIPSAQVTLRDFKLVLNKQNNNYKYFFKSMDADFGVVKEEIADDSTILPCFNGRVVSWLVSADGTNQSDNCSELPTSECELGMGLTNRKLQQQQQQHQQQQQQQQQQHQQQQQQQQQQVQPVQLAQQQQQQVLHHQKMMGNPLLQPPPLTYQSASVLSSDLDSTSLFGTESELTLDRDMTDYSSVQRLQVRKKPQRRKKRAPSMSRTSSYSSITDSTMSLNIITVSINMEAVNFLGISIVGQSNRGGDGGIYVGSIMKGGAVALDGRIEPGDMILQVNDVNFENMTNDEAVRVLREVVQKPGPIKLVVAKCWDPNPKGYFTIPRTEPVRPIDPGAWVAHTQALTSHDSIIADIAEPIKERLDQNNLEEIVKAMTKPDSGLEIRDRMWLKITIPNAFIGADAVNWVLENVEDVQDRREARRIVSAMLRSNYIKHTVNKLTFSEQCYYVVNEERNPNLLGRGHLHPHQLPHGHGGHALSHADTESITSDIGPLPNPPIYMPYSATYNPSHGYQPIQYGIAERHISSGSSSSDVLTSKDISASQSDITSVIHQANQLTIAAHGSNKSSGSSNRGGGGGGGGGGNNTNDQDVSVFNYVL

Row | fold activation (β-galactosidase, against the empty vector) (fold activation) [1] | fold activation (β-galactosidase, against the empty vector) (fold activation) [2] | fold activation (β-galactosidase, against the empty vector) (fold activation) [3] | Substance
1 | 3 | 20 | 20 | Notch-ICN2, prey fusion (domain or fragment)
2 |  | 40 | 40 | Notch-ICN1, prey fusion (domain or fragment)
